Experimental data: the nanobody polyreactivity screen of Harvey et al. (2022)

Assay: yeast display, Sf9 membrane polyspecificity reagent, FACS + sequencing; frameworks hold sequencing errors
Procedure, shortened: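 Nanobodies from a synthetic yeast display library (Saccharomyces cerevisiae BJ5465), induced 36–48 hours with galactose, were stained 1 hour at 4 °C with 10% biotinylated, detergent-solubilized Sf9 membrane reagent, enriched on streptavidin microbeads, then FACS-sorted. Anti-HA (expression) and streptavidin (reagent binding) fluorescence set low and high (top ~1%) gates. Polyreactivity labels come from the gate of origin. Genes were colony-PCR amplified, MiSeq 2 × 250 sequenced and filtered by CDR length.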

| Sequence | polyreactivity (PSR sort gate) |
| --- | --- |
| QVQLVESGGGLFQAGGSLRLSCAASGSTFRANAMGWYRQAPGKETELVAAISQSGGITYYADSVKVRFTISRDNAKNTVYLQMKSLKPEDTAVYYCAALGYRIIRGRFYSWGQGTQVTVSS | high polyreactivity |
| QVQLVESAGGLVQAGGSLRLSCAASGITYDHYAMGWYRQAPGKERELVARITGTGDSTYYADSVKGRFTISRDNAKNTVYLQMNSLKPEDTAVYYCAAVSYRQYYGWGNYWGLGTQVTVSS | low polyreactivity |
| QVQLVESGGGLVQAGGSLRLSCAASGSTSQPYDMGWYRQAPGTERELVASITNGGSTNYADSVKGRFTISRDNAKNTVYLQMNSLNPEDTAVDYCATRNGYSGTYGYWGQGTQVTVSS | low polyreactivity |
| QVQLVESGGGLVQAGGSLRLSCAASGRTLYGNTMGWYRQAPGKERELVAAITNRGGSTTYADSVKGRFTISRDNAKNTVYLQMNSLKPEDTAVYYCNKDVTPLHYDSWGQGTQVTVSS | high polyreactivity |
| QVQLVESGGGLVQAGGSLRLSCAASGSIFDQYAMGWYRQAPGKERELVAGISSNGGTSTYYADSVKGRFTISRDNAKNTVYLQMNSLKAEDTAVYYCAAQSHYVDQYGYWGQGTQVTVSS | low polyreactivity |
| QVQLVESGGGLVQAGGSLRLSCAASGFTFYWYAMGWYRQAPGKERELVAAITRSGSSTYYADSVKGRFTISRDNAKNTVYLQMNSLKPEDTAVYYCAKAYRPPGYDSWGQGTQVTVSS | high polyreactivity |
| QVQLLESGGGLVPAGGSLRLSCAASGYIFHRYAMGWSRQAPGKERELVAAITWTGARTYYADSVKGRFTISRDNAKNTVYLQMNSLKPEDTAVYYAGPASYSFAKSGYWGQGTQVTVSS | high polyreactivity |
| QVQLVESGGGLVQAGGSLRLSCAASGLTFERNAMGWYRQAPGKERELVAAISSGGSTYYADSVKGRFTISRDNAKNTVYLQMNSLKPEDTAVYYCAVYDWNSYFYRSWWSGFYYWGQGTQVTVSS | low polyreactivity |
| QVQLVESGGGLVQAGGTLSLSCAASGRTFVSYTMGWYRQAPGKERELVAAINYSVASTNYADSVKGRFTISRDNAKNSVYLQMNSLKPEDTAVYYCNRASAVWGQGTQVTVSS | low polyreactivity |
| QVQLQESGGGLEQAGGSLRLSCAASGYISDIGTMGWYRQAPGKEREFVATLVVGSTTNYADSVKGRFTISRDNAKNTVYLQPESGRYRGVLLRGWLLAVGKFTYWGQGTQETVSS | low polyreactivity |
| QVQLVESGGGLVQAGGSLRLSCAASGSIFGYYAMGWYRQAPGKEREFVAAISVSGSRTYYADSVKGRFTISRDNAKNTVYLQMNSLKPEYTAVYYCAARVDYRHRYYYWGQGTLVTVSS | high polyreactivity |
| QVQLVESGGGLVQAGGSLRLSSAASGSTFPVYALGWYRQAPGKERELVAAITRTGARTYYADSVKGRFTISRDNAKNTVYLQMNSLTPEDTAVYYCAARGAGGILGRYGYWGQGTKVTVSS | high polyreactivity |
| QVQLVESGGGLVQAGGSLRLSCAASGITFDKYAMGWYRQAPGKERELVAAISGSDGSTYYADSVKGRFTISRDNAKNTVYLQMNSLKPEDTAVYYCAAESEYAGTYEYDYWGQGTQVTVSS | low polyreactivity |
| QVQLVESGGGLVQAGGSLRLSCAASGFTFYRYAMGWYRQAPGKERELVAAISTSGGSTYYADSVKGRFTISRDNAKNTVYLQMNSLKPEDTAVYYCAASYYGKRDRAGPYYSFDYWGQGTQVTVSS | high polyreactivity |
| QVQLVESGGGLVQAGGSLRFICAASGFLFRAYTMGWYRQAPGKERELVAAITSSGGRTYYADSVKGRFSISRDNAKNTVFLQMNSLKPEDTAVYYCATVYAKWKQFDSWGQGTQVNVSS | high polyreactivity |
| QVQLVESGGGLVQAGGSLRLSSAASGFTFGNNAMVWYRQAPGKEREFVATISRRGGSTYYADSVKGRFTISRDNAKNTVYLLMNSLKPEDTAVYYCAVDRAGIKFAAGYDYWGQGTQVTVSS | high polyreactivity |
| PVQLVDSGGGLVQAGGSLRLSCAASGRTFGWYAMGWYRQAPGKERELVAAIRGVRTHYADSVKGRFTISRDNAKNTVYLQMNSLKPEDTAVYYCAARYYRWTKSEYGYWGQGTQVTVSS | high polyreactivity |
| QVQLVESGGGLVQAGRSLRLSCAASGSTFPVNTMGWYRQAPGKDRELVAAITKNGANTYYADSVKGRFTISRDNAKNTVYLQMNSLKPEDTAVYYCAARYVYGKSYSRWLVELDYWGQGTQVTVSS | low polyreactivity |
| QVQLVESGGGLVQAGGSLRLSCAASGRIFTIYAMGWYRQAPAKARELVAAISDRGTRTYYADSVKGRFTISRDNAKNTVFLKMNSLKPEDTAVYYCASDALYTYGYDYWGKGTQVTVSS | low polyreactivity |
| QVQLVESGGGLVQAGGSLRLICAASRSNFFPYAMGWYRQAPGKERELVDTISGSTGRTYYADSVKGRFTISRDNAKNTVYLQMNSLKPQDTAVYYCATSVGYYLAPIKYDYWGQRTQVTVSS | low polyreactivity |
| HAQLQESGGGLVQAGGSLRRSCAASGSIFRFSGMGWYRRAPGKERELVASIGFGSITYYADRVKGRFTMSRDNANNTVYLQKNSLKPEDTAVDYCAVQVQDESWLDYWGQGTQVTVSC | low polyreactivity |
| QVQLVESGGGLVRAGGSLRLSCAASGSTFRQYAMGWYRQAPGKERDLVAAINWSGSSTYYADSVKGRFTISRDNAKNTVYLQMNSLKPEATAVYYCAARRVLATFQHSNSHYYWGQGTQVTVSS | high polyreactivity |

| Sequence | polyreactivity (PSR sort gate) |
| --- | --- |
| QVQLVESGGGLVQAGGSLRLSCAASGRIFGHYAMGWYRHAPGKERELVAAINWRGGSTYYADSVKGRFTISRDNAKNTVYVQMKSLKPEETGVYYCAADWTKARDSIYDYWGQGSQVTVSS | low polyreactivity |
| QDQLVESGGGLVQAGGSHRLTCAATGITLDNYVMGWYRQAPRTERELVAAISRTSGRTYYADSVKGRFTISRDNAKNTVYLQMHSLKPEDTGVYYCNARSRGRASGYDYWGHGTQVTVSS | high polyreactivity |
| QVQLVESGGGLVQAGGSLRISCAASGSTLFNYAMGWYRQAPGKERELVAAIDWGDGTTYYADSVKGRFTISRDNAKNTVYLQMNSLQPEDTAVYYCAAEEFYSPYDYWGQGTQVTVSS | high polyreactivity |
| QVQLQESGGGLVQAVASLRLSCEASVSISSLDYMGWYRQASGKERELVAAIDNGSTTYYADSVKGRLTISRDNAKYTVYLQMNSLKPEDTAVYFCAAVRGRGGTHAYWGQGTQVTVSG | low polyreactivity |
| QVQLVESGGGLVQAGGSLRLSCAASGSIFVYYAMGWYRQAPGKERELVAAISSGDGTNYADSVKGRFTISRDNAKNTVYLQMNSLKPEDTAVYYCNADLDSGYGSYDYWGQGTEVTVSS | low polyreactivity |
| QLQLVESGGRLVQAGGSLRLSCAATGFTFGGYAMGWYRQAPGKESELVARIRRSGGSTYYADSVKGRFTISRDNAKNTVYLQMTSLKPEDTAVYYCAAGYSRGQYRYNYWGQGTQVTVSS | high polyreactivity |
| QVQLVESGGGLVQAGCSLRLSCAASGRTFYFYTMGWYRQAPGKVRELVAAISWSGGSTYYADSVKGRFTISRDNAKYTVYLQMNSLKPEDTAVYYCNAVFFKGSESGLDYWGQGTQVTVSS | high polyreactivity |
| QVQLVESGGGLVQAGGSLRLSCAASGSTFPPNTMGWYRQAPGKERELVAAITQRGGNTYYADSVKGRFTISRDNAKNTVYLQMNSLKPEDTAVYYCATRYRYKGYYGQYEYWGQGTQVTVSS | high polyreactivity |
| QVQLLESGGGLVQAGGSLRLSCASSGRTFRQYVMVWYRQAPGKESELVAAITYSGGSTYFADSVKGRFTISRDNAKYSVYLQMNSLTPEDTAVYYCAARNGYCVGYWGQGTQVTVSS | high polyreactivity |
| QVQLVESGGGLVQAGGSLRLSCAASGSIFYPYAMGWYRQAPGKERELVATINEDGGSTYYADSVKGRFTISRDNAKNTVYLQMNSLKPEDTAVYYCNTDHFEDYHTDFWSDYEYWGQGTQVTVSS | low polyreactivity |
| QVQLVESGGGLVQAGGSLRLTCAASGFTFSQYVMGWYRQAPGKERELVAAISYRGGSTYYADSVKGRFTISRDKAKNTVYLQLNSLKPEDTAVYYCAAVAYSWHNRYDYWGQGTQVTVSS | high polyreactivity |
| QVQLVESGGGLVQAGGSLRLSCAASGFIFGGYAMGWYRQAPGKERELVAAISYGGGSTYYADSVNGRFTISRYNAKNTVYLQMNSLKPEDTAVYYCAADIPGYRYTGYRRGYWGQGTQVTVSS | high polyreactivity |
| QVQLVESGGGLVQAGGSLRLSCAASVSTFYSYVMGWSRQAPGKETELVAAITYSGGRTYYADSVKGRFTISRDNAKNTVYLQMNSLKPEDTAVYYCAKRVFNYQRYDYWGQGTQVTVSS | high polyreactivity |
| QVQLVDSRGGLVQAGGSLRLSCAASGSTYLRNVMGSYRQAPGKERELVAAISSRGGSTHYADSVKGRFTISRDNAKNTVYLQMNSMKPEDTAVYYSNAERTAAQYVRAAYDFWGEGTQVTVSS | low polyreactivity |
| QVQLVESGGGLVQAGGSLRLSCAASGSTFSRYAMGWYRQAPGKERELVAAISSSGGGTYYADSVKGRFTISRDNAKNTVYLQMNSLKPEDTAVYYCAAKRVHGATGYWGQGTQVTVSS | high polyreactivity |
| QVQLVESGGGLLQAGGSLRLSCAASGFTVYRYAMGWYRPEPGKERELGAAITWSGGSTYYADSVKGRFTISRDNAKKSVYFQMNSLKPEDTAVYYCAKETAPSRLPYGYWGQGTQVNVSS | low polyreactivity |
| QVQLVESGGGLVQAGGSLRLSCAASGFIFGYNAMDWYRQAPGKERELVAAITSGGSTNYADSVKGRFTISRDNAKNTVYLQMNSLKPEDTAVYYCNTVPGDFRSITDDDWGQGTQVTVSS | low polyreactivity |
| QVQLVESGGGLVQAGGSLRLSCADSGLTFWVYAMGWYRQAPGKERELVAAISSGGSTNYADSVKGRFTISRDNAKNTVYVQMNSLKPEDTAVYYCAAEWVYWQDELWDSPGLVEFDYWGQGTQVTVSS | low polyreactivity |
| QVQLVESGGGLVQAGGSLRLSCAASGSIFEPNAMGWYRQAPGKERELVAAISSGGSTYYADSVKGRFTISRDNAKNTVYLQMNSLKPEDTAVYYCAAYYHGYYSWGQGTQVTVSS | high polyreactivity |
| QVQLVESGGGLVQAGGSLRLSCAASGRIFWQNAKGWYRQAPGKERELVAAISSRGGTTYYADSVKGRFTISRDNAKNTVYLQMNRLKPEDTAVYYCNAALLLRYRGFFTVAAYDYWGQGTQVTVSS | low polyreactivity |
| QVQLVESGGGLVQAGGSLRLSCDASGLTFAYYAMGWYRQEPGKERELVADISWNGGRTYYSDSVKGRFTISGYNAKNTVYLQMNSLKPEDSAVYYCAAQVTSSFYWGQGTQVTVSS | high polyreactivity |
